Data published in the NTF2 design screens of Basanta et al. (2020).

Test: protease stability score; higher = more stable; yeast display proteolysis, trypsin and chymotrypsin;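 further: relative to predicted unfolded state with 0 unfolded-like and 1 meaning tenfold more protease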

Sequence | protease stability score
DELKRYLEELVRRVLQATLTGDEDHFSHLADPTTRLILEDEDHHVENHGREDVRRFMEEHFRRVDHWHISLRRLHPVGNKMHSTGTLRVTFDGVKVDVEVRNHFVMVDGRIKFWKIEFI | 1.23
HEEDHHMEIAIELNQRMLQTGDEELLEKLADPSVRLKQGDKDVHGRHVVSRWLHEVIMKFPNVTIIERHVRIIDGKVHFHGDWHFNGVDQHVTIIAEKVNGRWILKTIELK | 0.983
DEDTEKLEKMIEELFKLWLTGDEEKLTHLADPNMRVDVNGRDLHGRHLMSSLWRQIRIEDQRLRIRDWEFFDGRVTIHSHITVRGHINGRHEEITHDVRIVVDKINGRWIIREFRIH | 1.27
SKEEKDYWEFAEIWISDLLTGDEDLRKHLHDPDVRYHYHQGDKTFETHGMEEVLKLDKDLWRRLGVKHLEIHRVEVQGDKIHLDARLQVGDKSTEVHILLIVVNGKVKHIHIFVH | 1.2
REEEEISKNIAELFEHTLRTGDEKLFLKLADPHVKNEQGEFDSVGREEWHRQFREILNKWGVDRIHSQERRFTDYDGRLEMHVEMRFNGKRVEVRMRVEKYDGRWILTELHIRIE | 0.655
DENTENEHNIAEVIIEAFETGDWEMLWRMADPNTLLEIIIGDKRMEIHGMHIFVKYWVEFQDRFKNVRISLKSYHVYDGRIELHMNLNFNGRRVEEEVLIYFINGRVKRIHIRHH | 2.8
DEKEEEYKEMIRIMVEYLETGNEEDMNRLLDPHTKTEYHQGDKSDEFHGREEFMRLWQELGIDHFRVRDVDIVDGRVRIESELIVGDKRFNSYFFLIVVNGRATSASIHVE | 2.27
DEDKEAKEESWRIYLHSLLTGDEKEIERLVDPNARLDINGQEHHGRHMVLTHVLRLMVRADHLDDIEIHHMEVIDGQLHSDVILKITINGRDVHIREHYLLRKVNGRWYFKSIEVR | 1.7
DEEEKEAVRHWELFMKAELTGDEEKLKNLADPNTRILFNGVEQIGWEELIRKLREIRIKLHDYRVHQVDRIDGRVILDFRVDIILYVGDKFFKHEIRVHVFILKYDGKWILEYEEIK | 0.736
SEREEHTEEVWRDWLQSILTGDEDDLKRLADPHVRLEINFDGRTLIYHGREIVARFWSELRIRHFTLRHLKMIGDKIQVKGETKLEQGDKKVDSSVDLDTDIINGVIKREFVVYR | 0.892
DEDKEIADNFLKQLLRDIQTGDEDSFIERLDPNARLQVGDKHVHGMDEVLRTRREWVKLMGADHIHHVEVNHVHIQGDKVHMDVEVDVEFNGKRRRLKSHLILTKVDGQWIITMEIIK | 1.08
TEEEEEMRELTELWLNILHTGDEDRFRELADPRVRLHINGRHNHGREIFMEFFDRSLKILGADHRTIHRIRFIGDKIDIKGREYINGQETRATLHVIIVNGRIKFEEWRFD | 0.989
DEDEERAKKLAEDTLHSWRTGNEEHMIKLADPNVRVEWNGKDFVGREEFKRSVHKMLRDLGVDNIEVRLDHIEVDEDHAIVYGEVIYNGRISQIEWVFRKVNGRWYLHRMHIRDR | 1.54
TEDEENAERVARMFLKLLTTGDEHRLTELLDPNVIVEVGDKILIGREEALKLLRTWREKYGIDHVDVRHVEIEIVGDKVNVHMHGTIYVGDKKKDTRIHLHIRKINGRWMVEKVSIEEK | 2.68
SEIEKESEKIWKIWFHNLETGNWREIARLFDPHARWRELVDGREVNIVGREEVVRLLSENSEHLRLDDFRETSVRVIGDFVRSDVEMVGTVDGQHERRRVEVIIVTINGRLHSITITHL | 1.15
DDVEKLTREWFEKYLHTIQTGDEHSFERLADPNVRLHAENREYHGMEVISERLREEQDKFKGLRITHFHITHIINNEDEMYVDGRIVVEWNGQKEILTVHLIAFKVNGKWILKRYVKK | 1.78
HEEEESFKNALEMWIRTVKTGDEKLESDLLDPDARLIFNGQEFHGRELVKKILIDWRKELRVRDFELRDFHIQGDKIYIDGTMFVEINGQTETRKIVIVFVKVNGRWLIHQVTFH | 2.24
EEEKHLLRRIVRELTESERTGDEDHLDKLLDPHARTNVNGVDFHGREDWRKWTEEFFRRVDHIEFRIEDIKIINGVAIVDTRITMHIGDKHIHFELEIKNVIIDGRVKELRIKFK | 0.91

Sequence | protease stability score
DDVHEDATRAIKILKHNLETGDEDKLMTMMDPNVRFEDGNKHAHGREQTVQVLLEIIEKLGVSKFSHEIKDLKIVDGKLHLHGTLKVDGKTVDLEVVSLKINGRWLIKSIHLH | 1.19
DEEEKWMRNLTEWLLKSLTTGDFESFNRMFDPRTRMHVDGREFHGREEVERYLREFDDKLGADHRESDLEHIEVQGNKARFHTTLKFDIGDKHLRIDTHLVIVKINGQWRIRHVEVR | 0.839
EERERLAEELARIWLEVLETGDWKMLHDLADPNVRNVVGDKEQHGREEMSRFYTEWHEHIRIHRIEIESIDIQGNKIQIHGRIDMEINGKRRDQRLEIIIIVINGRIKRLEVRLH | 0.948
DEHDEYLHHLLKVLWELIMTGDEHTFERLADPNVRLEVGNYFHVGRENIREMWKFLHDLLGVDHFRLHIRDLRVFNGVADAEYELRLNQGDKETRIEVRIYVHIVNGVLKSIRIETH | 1.44
DEDQKAATRFTELLVRLLFTGDEEMWLQLADPRMILDFENHSEHGMKLVVKLLHETIERRGMRIDDMHHTHIEFQGEWVRVHVRVHERIGDKRISVEVEYKSLKVNGRWILHEIHIH | 0.372
SEFEEIAHIMIRLFHHAMRTGDEHKLMKNFDPNTRIDVNGVEEHGRENLERHLHHLSRHLRVNDFKVKDVKDVDGRVVIDGIWNGEINGQETDVEVEVIIIKINGQWYIQHLKIK | 1.03
DEEDEDAHYALKLLLKMVHTGNEEDMQRYLDPNVRVEQGDYHYHGREASEIIKNRFKNVKVKVDHYEIQGEYVNLKVTIDVNGKHKQSTIIVHKFDGRWLIEKIIII | 2.48
SEDHRMMKEALDKLIDSIETGDPELYLRLFDPDTQTRIGDKHIHGWEEIEKIFRKILERFDHFEHMHLEHFDIQGNYIHLDIRLWGKVNGKRITLNIRVVVVKYNGRWTIREESLT | 1.72
DEDEKHMEEWLRLLKHALVTGDFEMILRNLDPHYRNDINGREFHGWEFFDKLMKEIRVKDSHLTHIEIYDGKAISETNVDLHVDGKDVLLDTRVVIDKYNGRWIIRHVSID | 1.23
SEEEEKTRRILEELFELFLTGDEQRTLELFDPNMRFHLHYGDKELHLHGREEVAKFLHDHRHRVKNVKFHLKKEEVQGDKAILYIRVEIDGQEVYLNIEIHVIDGKLHEVVERIHEV | 2.25
DEEREDIEKVTHILSEIWETGDEHRLHRMLDPNTKVVIDGVEIHGRELIIRFRKELRHKLGLDRIEVDIDHIEVQGDKAISDTSIDYNGREFKVINTVHKYNGRWLVHRIIHE | 0.815
DEEDKMVRVLVELWVENFITGDEEKLYELMDPDTRLEIDGVENHGMEKAIEFLERHREHYGVDHIHLIIHEVKHQGNKAHIDGILEFRQGDKQIELHWELHFEVVNGRMKEVHVNTR | 2.29
DEEEKHDTFMTEIFKEIYQTGDEDALATMADPDTRLIIRIGDYTEENHGWKFFIEKLMRLIRKVKNLRYIETRDHVFDGQSHIHGILIINGRKREVEIIIYIFDGRIKSIEIRIV | 1.79
DEEHEIIRKMFEIVKDMFKTGDEEITERLLDPNARIDIDGRDIVGRESVLWLFSQFKNLRHRDDRIDYQGNFVIVRGKLDINGRRVEIEIVAAKVDGRWILHSIKMQ | 1.43
DELDEFREYWIRYVEEVFRTGDFEKHLSLMDPNARVLVDGKELHGREFLEVHMRRIKNATVRDVHHHDMEIQGDKVTLDVDVHVNVNGRDVDKHVLIISEKVNGRWISRSLEVR | 0.628
DEEKKANHFNKEFDRNVQRNNETELRKMVDPNARVNVGEQNYSGRNKMVKIITDWLRKYDKFTIDVRRIDVHGNRIFIDFEMVVVSNGQRRTTEIRVVVEEHNGRLHIRVWEIT | 1.03
SEEEELAVKMWEIWLRSFLTGDETRLDQMMDPHAKLERIINGKRQHTHGWENVLKELIRLADELRVEHIHIRSEHRQGEKLDVKGEIDGDINGVRRRVEVDIHLVIVDGRIRHVKEVIR | 1.12
REDEKLFEEVLRELVKWLTTGDEKQMRDLFDPNARREVNGVEVHGWEEFLRHVREDRKRYDHVKDIEIHHIDIQGDKLEINVTLVGHIDGKEDVIIFTILLRKVNGKWIVKEIQFH | 1.52
